Data: the DeepSol protein solubility set

Assay: soluble on expression in E. coli; label from the status in PepcDB or PDB records
In the case of “MKLHTLVSCLHDFPVVPKENPEITSIEADSRKVKEGSLFVCMKGYTVDSHDFAKQAAAQGAAAIVAERPIDVDVPVVLVKNTFRSLAVLADYFYGQPTHKLHLIGITGTNGKTTTSHIMDEIMRAHGHKTGLIGTINMKIGDETFEVKNTTPDALTLQQTFAKMVEHGVDSTVMEVSSHALDLGRVHGCDYDVAVFTNLTQDHLDYHKTMEEYKHAKGLLFAQLGNSYNHNREKYAVLNNDDAVTVEYMRSTAATVVTYGIDTTSDVMAKDIAMTSGGTTFTLVTPYESVNVTMKLIGKFNVYNVLAATAAGLVSGVSLETIIDVIKELAGVPGRFEVVDGGQNYTVIVDYAHTPDSLENVLKTAKQFAKGDVYCIVGCGGDRDRTKRPIMASVATQYATHAIYTSDNPRSEDPAAILDDMVHGANGNNYEVIIDRKEAIHHAITKAKADDIIIIAGKGHETYQIIGKDVHHFDDREVAKEAITERLNNEE”, the “soluble on expression in E. coli” value is reported as “not soluble”.
For “MKLIAVLNLLNQLSNKNSLEEYLNGVIDFLSGWTGCENIGIRVLREAGLAPYVVHRGFDKDFIASESCISVEGDECVCLRVLKQQFKSEDQDHISAAGTYYAPNFYRYVEELREDQLLNFRGLCAHKQFKSLAVIPLLHQGKVVGAIHIADIKDGVFSEEDIHFIETIRPLVAEAIYRHNLEKALEHHHHHH”, the “soluble on expression in E. coli” value was “not soluble”.
In the case of “MKLLAITSCPNGIAHTYMAAENLQKAADRLGVSIKVETQGGIGVENKLTEEEIREADAIIIAADRSVNKDRFIGKKLLSVGVQDGIRKPEELIQKALNGDIPVY”, the “soluble on expression in E. coli” value is reported as “not soluble”.
For “MKLMDVRVSGLNVWITDKHILKGISFKAQPGTVTAIMGPSGSGKSTLIRVINRLIDLIPGARVEGEVWINNMNVMKEDPYNIRRYTGMVFQEPNPFPHMTIYENVAIGPKLHGLAKNKKELDEIVEWALKMAHLWDEVKDRLSDYPHQLSGGQRQRLSLARALALKPRVLLLDEPTANIDPVSTVKIEQSIVEYAKEEMATVIIVTHTPQQAARISDQILFLYEGRVIEYGPTKELVLRPRHELTKKFLGGEV”, the “soluble on expression in E. coli” value was “soluble”.
In the case of “MKLMFASDIHGSLPATERVLERFAQSGARWLVILGDVLNHGPRNALPEGYAPAQVAERLNAVATQIIAVRGNCDSEVDQMLLHFPITAPWQQILTQERRLFLTHGHLFGPTNLPALHTGDVLVYGHTHLPVAQQQEGLYHFNPGSVSIPKGGYAASYGILDDNVLSVIALNDQSIIAQVAINS”, the “soluble on expression in E. coli” value is reported as “not soluble”.
With “MKLNKLFDSKTVVFKKSDKYGKSDCCKTKCVEGQIEFGVKIPTDFPAFNRALVTFLKTQKNQLNVDLDSFVELYKAENLCYKTALKVVVASITFCETTPFTMKTEPQKNVEVAVKCDSEHTSLIKEYEV” the “soluble on expression in E. coli” value was “not soluble”.
In the case of “MKLQTTYPSNNYPIYVEHGAIKYIGTYLNQFDQSFLLIDEYVNQYFANKFDDILSYENVHKVIIPAGEKTKTFEQYQETLEYILSHHVTRNTAIIAVGGGATGDFAGFVAATLLRGVHFIQVPTTILAHDSSVGGKVGINSKQGKNLIGAFYRPTAVIYDLDFLKTLPFKQILSGYAEVYKHALLNGESATQDIEQHFKDREILQSLNGMDKYIAKGIETKLDIVVADEKEQGVRKFLNLGHTFGHAVEYYHKIPHGHAVMVGIIYQFIVANALFDSKHDISHYIQYLIQLGYPLDMITDLDFETLYQYMLSDKKNDKQGVQMVLMRQFGDIVVQHVDQLTLQHACEQLKTYFK”, the “soluble on expression in E. coli” value is reported as “soluble”.
With “MKLRANIIEKRGTLQVIVSYKDSNGKIRQKWKDTKLKKKGNKKRAEKIRDEFLLELESQLAMECECANPDLLFYDYLLNYLEVSKKQVAFNTYVGYKHYVHNRIYKFFYPKKIKLNRLKPYHLQDFYQYMLNDDCTANTVIHYHAFIRKALQEAVITELISTNVADKVRKPKKKQFVSQVYNQHEILKLLDILSEEKLYLVVLLTAFYGLRRSEVLGLKWSAIDFLNKKIMINHVIIENPENMSQLIKKDQTKNSSSYRTLPLVETIERALVNQAKWQQDNRILLGEDYILKDSEYVFTMEDGRLMKPQYVTHRLSKLIKKNGLKKIRFHDLRHSNASIMLDSGQNMKSIQEWLGHASYSTTANLYTHLTAGVKERAAEALENAFGFKE” the “soluble on expression in E. coli” value was “not soluble”.
For “MKLSATIAIILLNWNGWRDTVDCVESCRKLDYPNFRIVIVDNGSTDGSEAILRERFPDVELIQTGANLGFAGGNNAGIRHALVRGADYVWLLNNDTVVEPGALGALVRVAESDPRVGMVGSKIVYFDDPWLLWFAGAVIDPERPHRPFHRGLHERDTGQYDRVAETGYVTGCSLLARREMMAEVGMLDDDLFLYFEDADWSARAARAGWKLLYVPDSVVRHKESVSSGGAASPRLVYYTARNRLYFVRRNFPAKLAAALCYDLFEHVLVNVKKGRFPLAVAGCRGIRDFLAGKIGPMPLEHHHHHH”, the “soluble on expression in E. coli” value was “soluble”.
In the case of “MKLSAYHKARGGLVEWWNPKNHYDLVYKSRVFTDTYSKDTIAVTNADAVILGGTGYDLGENLPDAVEHTRPDAALYPQFSDTAYGFLSRGCPRNCGFCIVSGKEGRRSRKVADLSEFWDGQKEIKLLDANLLACPDHEALILQLAESRAWVDFSQGLDIRLITPDNVALLNRVRTRAVHFAWDNPDEDLTGYFRRFLELTAIKSDRKRRVYVLTNYGSTHEQDLYRVETLRGMGYDPYVMVYDRPAAPKITRQLQRWVNNKRIFYTVKNFADYIPNRTGGIT”, the “soluble on expression in E. coli” value is reported as “not soluble”.
With “MKLSKIKLPYFMNELTLTELDMGVAVPKILQAFKPYVDHQGLWIDLEMSYNGSFLMTLETKMNLTKLGKEPLVEALKVGEIGKEGCRPRAFCLADSDEESSSAGSSEEDDAPEPSGGDKQLLPGAEGYVGGHRTSKIMRFVDKITKSKYFQKATETEFIKKKIEEVSNTPLLLTVEVQECRGTLAVNIPPPPTDRVWYGFRKPPHVELKARPKLGEREVTLVHVTDWIEKKLEQEFQKVFVMPNMDDVYITIMHSAMDPRSTSCLLKDPPVEAADQP” the “soluble on expression in E. coli” value was “not soluble”.
With “MKLTGKQTWEFENPLFVNSSGTAVGPKEKEGPLGHLFDKSYDEMHCNQKNWEMAERKLMEDAVQSALSKQNLKKEDIDIFLAGDLLNQNVTANYVARHLKIPFLCLFGACSTSMESIAISSALIDGGFAKRALAATSSHNATAERQFRYPTEYGGQKPGTATSTVTGSGAVVLSQQPGGIKITSATVGRVIDLGITDSQDMGSAMAPAAADTIKQHLEDLGRTPDDYDLILTGDLSGVGSPILKDLLKEEGINVGTKHNDCGLMIYTPDQQVFAGGSGCACSAVVTFAHIFKEIEAGRLNRVLVVATGALLSPTIIQQKESIPCIAHGVVFERAERGNALEHHHHHH” the “soluble on expression in E. coli” value was “soluble”.
For “MKLTVVGLGYIGLPTSIMFAKHGVDVLGVDINQQTIDKLQSGQISIEEPGLQEVYEEVLSSGKLKVSTTPDASDVFIIAVPTPNNDDQYRSCDISLVMRALDSILSFLEKGNTIIVESTIAPKTMDDFVKPVIENLGFTIGEDIYLVHCPERVLPGKILEELVHNNRIIGGVTEACIEAGKRVYRTFVQGEMIETDARTAEMSKLMENTYRDVNIALANELTKICNNLNINVLDVIEMANKHPRVNIHQPGPGVGGHCLAVDPYFIIAKDPENAKLIQTGREINNSMPAYVVDTTKQIIKVLSGNKVTVFGLTYKGDVDDIRESPAFDIYELLNQEPDIEVCAYDPHVELDFVEHDMSHAVKDASLVLILSDHSEFKNLSDSHFDKMKHKVIFDTKNVVKSSFEDVSYYNYGNIFNFIDK”, the “soluble on expression in E. coli” value was “not soluble”.
With “MKLVILLSFVATVAVFAAPSAPAGLEEKLRALQEQLYSLEKENGVDVKQKEQPAAADTFLGFVPQKRMVAWQPMKRSMINEDSRAPLLHAIEARLAEVLRAGERLGVNPEEVLADLRARNQFQ” the “soluble on expression in E. coli” value was “not soluble”.
In the case of “MKLVLVSTRGVRSLNSTNFPAPWPFVKKGAFGQRKIGPMNYEKFKWPGQNREFPELSPKFQKLNPKELHRYTGVQADGFHDEKTGEFVPVKEMRSELVVPNLDGFKLRPYVSYRTDVQIEKRRVAYEKKVLEKGSERLADLHTVEDERWPPPKMSAETLFELAYGDTVRSAYKEGKYGNK”, the “soluble on expression in E. coli” value is reported as “not soluble”.
With “MKLVRPQKISDQVLSVLEERIAEGVYAEGGKIPPERVLAEEFGVSRPSVRSALNVLVARQVLEARQGDGYYVSVKPQQDFLQSWQELLGKHSNWEQDVFDFSCHIEGCMAALAAERRTDADLKRIGFWLEKFEEACESGNLEHQSEADVSFHQTIADAAHNLLFSHLSGGLLKMLYRQTRSSLIYLNQEEDPRPKLMAQHRVLYEAISNRRPGEASEAAKAHLNYVASSILKDREYQSRNRHADTLAQNDLKRVQDWAV” the “soluble on expression in E. coli” value was “soluble”.
For “MKLYMSVDMEGISGLPDDTFVDSGKRNYERGRLIMTEEANYCIAEAFNSGCTEVLVNDSHSKMNNLMVEKLHPEADLISGDVKPFSMVEGLDDTFRGALFLGYHARASTPGVMSHSMIFGVRHFYINDRPVGELGLNAYVAGYYDVPVLMVAGDDRAAKEAEELIPNVTTAAVKQTISRSAVKCLSPAKRGRLLTEKTAFALQNKDKVKPLTPPDRPVLSIEFANYGQAEWANLMPGTEIKTGTTTVQFQAKDMLEAYQAMLVMTELAMRTSFC”, the “soluble on expression in E. coli” value was “soluble”.
For “MKMFNIASEDDIKKGLASDVYFERSISTLTETCKDHRVAMEATVSGPLDTWINFSGLDEVLKLLEGIDVDVFAIPEGTILYPRDSNGIPVPFIRIEGNYCDFGMYETSILGMICQASGISTKSSKVRIAAGDCPFFSFGIRRMHPAVSPMIDRSAFIGGADGVSGILGAKLIGEEPIGTMPHALSIILGDDEAWRLTLKNTKNGQKSVILIDTYMDEKFAAIKVAEEFEHVDYIRLDTPSSRRGNFEALVREVKWELALRGRSDIKIMVSGGLDENTVAKLREAGAQAFGVGTSISSAKPFDFALDIVSIDDKPKTKRGKLSGKKSVLRCEKCRKVEVVPYGVESKPCSCGGVMHNIIVKYMEHGKLLSQYPEPKEIRKRTLSELEYFRSSN”, the “soluble on expression in E. coli” value was “soluble”.
In the case of “MKMGENVTEYFEFAGVKNTENTLKYAIERAKLGISDIVVASSYGETAKMLFDMLEKENLNVNVVVVTYHQGFSGPDVVAMPENVKKDLEKRGATVFSGTHALSGVERGISKRFGGYGPVEVIAQTLKTLGQGVKVCYEVTVMAADAGLVSTKKEIIAIGGSSRGADSAVVIRPSNMNTFFDIELRELICMPKNKKKHEMAGDPLEHHHHHH”, the “soluble on expression in E. coli” value is reported as “soluble”.
For “MKMNVESFNLDHTKVKAPYVRIADRKKGVNGDLIVKYDVRFKQPNRDHMDMPSLHSLEHLVAEIIRNHANYVVDWSPMGCQTGFYLTVLNHDNYTEILEVLEKTMQDVLKAKEVPASNEKQCGWAANHTLEGAQNLARAFLDKRAEWSEVGVGSHHHHHH”, the “soluble on expression in E. coli” value was “soluble”.
In the case of “MKNFMKYLEVSKEVKEALENNKPVVALESTIISHGMPFPQNYETALKVEKVIREAGAIPATIAILDGKLKVGLSAEEIEFLGKEGSKIIKVSRRDLPYIVANKLNGATTVATTMIVAEMAGVKVFATGGIGGVHRGAETTMDISADLEELSNTNVAVICAGAKSILDLGLTLEYLETHGVPVLGYQTKKLPAFFTRESEFDLDYKIDTPKELADIITAKWEMGLNGGVVIANPIPVEYSMDYDEISKSIEEAVKEAEAKGIKGKESTPFLLAKIKEITKGKSLEANIQLVYNNAKLASEIAGNMK”, the “soluble on expression in E. coli” value is reported as “not soluble”.
In the case of “MKNFVAGAQSGRKIQSGGCAIHCQDCSISQLCIPFTLNEQELDQLDNIIERKKPIQKSQVLFKAGDSLNSIYAIRSGTIKSYTISESGEEQITSFHLPGDLVGFDAITQMQHPSFAQALETAMVCEIPFDILDDLAGKMPKLRQQILRLMSSEIKSDQEMILLLSKMNAEERLAAFIHNLSKRYSARGFSAREFRLTMTRGDIGNYLGLTVETISRLLGRFQKLGVISVQGKYITINDLNGLIELTGTNKTKITLVK”, the “soluble on expression in E. coli” value is reported as “not soluble”.
With “MKNIKKNQVMNLGPNSKLLKEYKSQLIELNIEQFEAGIGLILGDAYIRSRDEGKTYCMQFEWKNKAYMDHVCLLYDQWVLSPPHKKERVNHLGNLVITWGAQTFKHQAFNKLANLFIVNNKKTIPNNLVENYLTPMSLAYWFMDDGGKWDYNKNSTNKSIVLNTQSFTFEEVEYLVKGLRNKFQLNCYVKINKNKPIIYIDSMSYLIFYNLIKPYLIPQMMYKLPNTISSETFLK” the “soluble on expression in E. coli” value was “soluble”.
